# Measured values: patent US20220175942A1 (OXFORD UNIVERSITY INNOVATION, published 2022)
# T1: P467_RHIPU (Rhipicephalus pulchellus, UniProt L7M8Z8 22-127)
# T1 construct: Tick evasin; also called Evasin
# T1 sequence: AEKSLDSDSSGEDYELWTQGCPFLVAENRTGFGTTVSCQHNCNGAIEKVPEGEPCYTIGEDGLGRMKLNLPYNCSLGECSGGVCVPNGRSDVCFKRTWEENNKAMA
# T2: P985_AMBPA (Amblyomma parvum, UniProt A0A023FT45 25-132)
# T2 construct: Tick evasin; also called Evasin
# T2 sequence: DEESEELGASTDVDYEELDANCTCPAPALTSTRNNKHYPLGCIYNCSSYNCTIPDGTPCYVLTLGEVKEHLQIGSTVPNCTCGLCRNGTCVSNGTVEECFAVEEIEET
# T3: P983_AMBCA (Amblyomma cajennense, UniProt A0A023FFB5 22-119)
# T3 construct: Tick evasin; also called Evasin
# T3 sequence: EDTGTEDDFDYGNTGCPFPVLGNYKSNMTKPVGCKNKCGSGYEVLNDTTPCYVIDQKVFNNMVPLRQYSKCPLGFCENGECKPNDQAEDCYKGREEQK
# T4: P974_AMBCA (Amblyomma cajennense, UniProt A0A023FDY8 22-118)
# T4 construct: Tick evasin; also called Evasin
# T4 sequence: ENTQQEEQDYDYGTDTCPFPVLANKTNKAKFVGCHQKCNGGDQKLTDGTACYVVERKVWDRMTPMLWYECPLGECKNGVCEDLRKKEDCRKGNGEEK
# T5: P1180_AMBTR (Amblyomma triste, UniProt A0A023G6B6 26-116)
# T5 construct: Tick evasin; also called Evasin
# T5 sequence: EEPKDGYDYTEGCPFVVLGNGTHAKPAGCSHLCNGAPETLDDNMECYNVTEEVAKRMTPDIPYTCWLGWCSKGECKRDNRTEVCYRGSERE
# T6: P1243_AMBAM (Amblyomma americanum, UniProt A0A0C9S461 26-123)
# T6 construct: Tick evasin; also called Evasin
# T6 sequence: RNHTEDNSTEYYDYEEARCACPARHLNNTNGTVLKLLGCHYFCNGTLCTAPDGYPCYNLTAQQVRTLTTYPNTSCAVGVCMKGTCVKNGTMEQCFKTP
# T7: P991_AMBCA (Amblyomma cajennense, UniProt A0A023FFD0 29-136)
# T7 construct: Tick evasin; also called Evasin
# T7 sequence: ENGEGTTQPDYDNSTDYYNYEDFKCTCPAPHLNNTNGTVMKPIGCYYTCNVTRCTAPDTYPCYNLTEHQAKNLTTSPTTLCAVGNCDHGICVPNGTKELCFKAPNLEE
# T8: P1182_AMBMA (Amblyomma maculatum, UniProt G3MJ83 27-115)
# T8 construct: Tick evasin; also called Evasin
# T8 sequence: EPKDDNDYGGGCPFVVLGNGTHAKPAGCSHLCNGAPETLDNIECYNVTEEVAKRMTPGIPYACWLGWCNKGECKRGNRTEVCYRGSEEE
# T9: P1181_AMBMA (Amblyomma maculatum, UniProt G3MIX6 26-115)
# T9 construct: Tick evasin; also called Evasin
# T9 sequence: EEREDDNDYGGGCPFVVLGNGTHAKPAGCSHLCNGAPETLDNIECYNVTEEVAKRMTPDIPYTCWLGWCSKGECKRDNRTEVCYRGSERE
# T10: P672_RHIPU (Rhipicephalus pulchellus, UniProt L7MC74 22-125)
# T10 construct: Tick evasin; also called Evasin
# T10 sequence: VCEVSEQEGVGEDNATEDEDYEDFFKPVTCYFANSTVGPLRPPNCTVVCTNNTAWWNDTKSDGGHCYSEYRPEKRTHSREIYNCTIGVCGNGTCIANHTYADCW
# T11: CCL25_HUMAN (human, UniProt O15444 24-150)
# T11 construct: Biotinylated (detected with streptavidin-Alexa647) in yeast display; AlexaFluor 647 labelled (Almac) in thermophoresis
# T11 sequence: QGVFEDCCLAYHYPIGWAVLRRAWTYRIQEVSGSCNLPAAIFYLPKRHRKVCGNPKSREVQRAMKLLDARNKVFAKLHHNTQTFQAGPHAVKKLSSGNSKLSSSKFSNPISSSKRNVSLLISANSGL
# T12: CCL18_HUMAN (human, UniProt P55774 21-89)
# T12 construct: Biotinylated (detected with streptavidin-Alexa647) in yeast display; AlexaFluor 647 labelled (Almac) in thermophoresis
# T12 sequence: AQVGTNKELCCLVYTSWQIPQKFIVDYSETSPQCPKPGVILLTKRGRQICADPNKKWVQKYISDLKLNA
# T13: CXCL8_HUMAN (human, UniProt P10145 28-99)
# T13 construct: Biotinylated (detected with streptavidin-Alexa647) in yeast display; AlexaFluor 647 labelled (Almac) in thermophoresis
# T13 sequence: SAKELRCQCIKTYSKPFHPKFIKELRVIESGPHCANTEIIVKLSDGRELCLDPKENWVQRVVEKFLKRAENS
# T14: CCL1_HUMAN (human, UniProt P22362 24-96)
# T14 construct: Biotinylated (detected with streptavidin-Alexa647) in yeast display; AlexaFluor 647 labelled (Almac) in thermophoresis
# T14 sequence: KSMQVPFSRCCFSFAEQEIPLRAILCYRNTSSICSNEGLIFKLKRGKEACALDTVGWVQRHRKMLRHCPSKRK
# B1: CCL5_HUMAN (ligand)
# chain: SPYSSDTTPCCFAYIARPLPRAHIKEYFYTSGKCSNPAVVFVTRKNRQVCANPEKKWVREYINSLEMS
# notes: Biotinylated (detected with streptavidin-Alexa647) in yeast display; AlexaFluor 647 labelled (Almac) in thermophoresis
# B2: P546_AMBCA (other)
# chain: ENTQQEEEDYDYGTDTCPFPVLANKTNKAKFVGCHQKCNGGDQKLTDGTACYVVERKVWDRMTPMLWYSCPLGECKNGVCEDLRKKEECRKGNGEEK
# notes: Tick evasin; also called Evasin
# Legend:
# P467_RHIPU = target: T1, P467_RHIPU; test: microscale thermophoresis, AlexaFluor 647 labelled chemokine
# P985_AMBPA [1] = target: T2, P985_AMBPA; test: as above
# P983_AMBCA = target: T3, P983_AMBCA; test: yeast surface display FACS re-test, >3 fold MFI over control (col D);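 also: yeast displaying putative tick Evasins stained with biotinylated human chemokine plus streptavidin-Alexa647, flow cytometry, positive when MFI exceeds 3-fold the empty-vector or no-chemokine background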
# P985_AMBPA [2] = target: T2, P985_AMBPA; test: as above
# P546_AMBCA [3] = target: B2; test: as above
# P974_AMBCA = target: T4, P974_AMBCA; test: yeast surface display library FACS screen, labelled chemokine (col C: isolated in)
# P1180_AMBTR = target: T5, P1180_AMBTR; test: as above
# P1243_AMBAM [4] = target: T6, P1243_AMBAM; test: as above
# P991_AMBCA = target: T7, P991_AMBCA; test: as above
# P1182_AMBMA = target: T8, P1182_AMBMA; test: as above
# P1181_AMBMA = target: T9, P1181_AMBMA; test: as above
# P672_RHIPU = target: T10, P672_RHIPU; test: as above
# P546_AMBCA [5] = target: B2; test: microscale thermophoresis, AlexaFluor 647 labelled chemokine
# CCL25_HUMAN = target: T11, CCL25_HUMAN; test: as above
# P1243_AMBAM [6] = target: T6, P1243_AMBAM; test: as above
# CCL18_HUMAN = target: T12, CCL18_HUMAN; test: yeast surface display FACS re-test, >3 fold MFI over control (col D);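 also: yeast displaying putative tick Evasins stained with biotinylated human chemokine plus streptavidin-Alexa647, flow cytometry, positive when MFI exceeds 3-fold the empty-vector or no-chemokine background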
# CXCL8_HUMAN = target: T13, CXCL8_HUMAN; test: yeast surface display library FACS screen, labelled chemokine (col C: isolated in)
# CCL11_HUMAN = target: T15, CCL11_HUMAN (human, UniProt P51671 24-97); test: as above
# T15 construct: Biotinylated (detected with streptavidin-Alexa647) in yeast display; AlexaFluor 647 labelled (Almac) in thermophoresis
# T15 sequence (P51671 24-97 limits assumed): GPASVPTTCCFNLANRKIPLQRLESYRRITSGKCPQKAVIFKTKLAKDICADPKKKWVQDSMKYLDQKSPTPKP
# CCL1_HUMAN = target: T14, CCL1_HUMAN; test: as above
# CCL5_HUMAN = target: B1; test: microscale thermophoresis, AlexaFluor 647 labelled chemokine
binder,measurement,setting,value
B1,Kd,P467_RHIPU,48 nM
same,Kd,P985_AMBPA [1],48 nM
"CCL4 (ligand, Biotinylated (detected with streptavidin-Alexa647) in yeast display; also called human CCL4) APMGSDPPTACCFSYTARKLPRNFVVDYYETSSLCSQPAVVFQTKRSKQVCADPSESWVQEYVYDLELN",binding result,P983_AMBCA,binds
same,binding result,P985_AMBPA [2],binds
same,binding result,P546_AMBCA [3],binds
same,binding result,P974_AMBCA,binds
same,binding result,P1180_AMBTR,binds
same,binding result,P1243_AMBAM [4],binds
same,binding result,P991_AMBCA,binds
same,binding result,P1182_AMBMA,binds
same,binding result,P1181_AMBMA,binds
"CCL8_HUMAN (ligand, Biotinylated (detected with streptavidin-Alexa647) in yeast display; AlexaFluor 647 labelled (Almac) in thermophoresis) QPDSVSIPITCCFNVINRKIPIQRLESYTRITNIQCPKEAVIFKTKRGKEVCADPKERWVRDSMKHLDQIFQNLKP",binding result,P672_RHIPU,binds
same,binding result,P1182_AMBMA,binds
same,Kd,P546_AMBCA [5],80 nM
B2,Kd,CCL25_HUMAN,1220 nM
"CCL15_HUMAN (ligand, Biotinylated (detected with streptavidin-Alexa647) in yeast display; AlexaFluor 647 labelled (Almac) in thermophoresis) QFTNDAETELMMSKLPLENPVVLNSFHFAADCCTSYISQSIPCSLMKSYFETSSECSKPGVIFLTKKGRQVCAKPSGPGVQDCMKKLKPYSI",Kd,P1243_AMBAM [6],4 nM
"P1215_AMBPA (other, Tick evasin; also called Evasin) KTDTKNAAGELPPKVVIPGCEDPATTKAPLPDEPPYYGITIDKDGCQRKVLGSSQRQQRKVQNGRKLDGKKRGRRPVFVDLELTVDCKRKCNGTYSQLPDGENCLVSDGYPYGRWGTIKGGCYQGNCSSGQCHRGEKKVNCYLPKNITNDVPKSLNLAE",binding result,CCL18_HUMAN,binds
same,binding result,CXCL8_HUMAN,binds
same,binding result,CCL11_HUMAN,binds
same,binding result,CCL1_HUMAN,binds
same,Kd,CCL5_HUMAN,73 nM
